# Measured values from patent US20240100134.
# T1: recombinant human plasminogen (not fused to Fc, wild-type)
# T1 chain: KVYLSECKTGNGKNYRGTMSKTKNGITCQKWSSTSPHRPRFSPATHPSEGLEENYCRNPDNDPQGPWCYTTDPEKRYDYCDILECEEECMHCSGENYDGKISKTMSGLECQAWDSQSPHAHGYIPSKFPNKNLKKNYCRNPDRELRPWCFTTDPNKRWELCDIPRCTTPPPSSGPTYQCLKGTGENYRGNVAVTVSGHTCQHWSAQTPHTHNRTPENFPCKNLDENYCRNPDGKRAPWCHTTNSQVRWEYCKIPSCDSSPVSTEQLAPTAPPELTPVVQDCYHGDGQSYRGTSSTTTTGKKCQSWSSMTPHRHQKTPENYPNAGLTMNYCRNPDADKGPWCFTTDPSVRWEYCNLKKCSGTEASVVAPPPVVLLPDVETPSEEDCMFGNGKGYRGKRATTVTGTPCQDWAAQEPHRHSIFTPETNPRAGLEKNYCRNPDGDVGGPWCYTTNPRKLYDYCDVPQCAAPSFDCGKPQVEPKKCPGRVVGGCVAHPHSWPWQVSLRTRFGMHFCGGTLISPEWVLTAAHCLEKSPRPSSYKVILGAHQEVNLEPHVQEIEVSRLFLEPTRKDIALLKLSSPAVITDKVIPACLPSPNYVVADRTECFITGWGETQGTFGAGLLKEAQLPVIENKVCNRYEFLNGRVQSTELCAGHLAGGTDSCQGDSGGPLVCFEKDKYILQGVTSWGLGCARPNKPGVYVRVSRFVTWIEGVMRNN
# B1: tissue-type plasminogen activator (protein)
# chain: SYQVICRDEKTQMIYQQHQSWLRPVLRSNRVEYCWCNSGRAQCHSVPVKSCSEPRCFNGGTCQQALYFSDFVCQCPEGFAGKCCEIDTRATCYEDQGISYRGTWSTAESGAECTNWNSSALAQKPYSGRRPDAIRLGLGNHNYCRNPDRDSKPWCYVFKAGKYSSEFCSTPACSEGNSDCYFGNGSAYRGTHSLTESGASCLPWNSMILIGKVYTAQNPSAQALGLGKHNYCRNPDGDAKPWCHVLKNRRLTWEYCDVPSCSTCGLRQYSQPQFRIKGGLFADIASHPWQAAIFAKHRRSPGERFLCGGILISSCWILSAAHCFQERFPPHHLTVILGRTYRVVPGEEEQKFEVEKYIVHKEFDDDTYDNDIALLQLKSDSSRCAQESSVVRTVCLPPADLQLPDWTECELSGYGKHEALSPFYSERLKEAHVRLYPSSRCTSQHLLNRTVTDNMLCAGDTRSGGPQANLHDACQGDSGGPLVCLNDGRMTLVGIISWGLGCGQKDVPGVYTKVTNYLDWIRDNMRP
# Assays:
# [1] = biological target: T1, recombinant human plasminogen (not …)
# [2] = biological target: recombinant plasminogen-linker-Fc fusion (human plasminogen, QA linker GQAGQAS, Fc)
protein,measurement,setting,value
B1,"Michelis-Menten analysis of activation (KM and Vmax), 10 mM EACA",[1],the kinetics of rPlg and rPlg-Fc activation are similar (as indicated by the KM and Vmax)
same,activation measured by the hydrolysis of plasmin fluorogenic substrate H-Ala-Phe-Lys-AMC,[1],"In the presence of tPA or uPA, comparable hydrolytic activity for rPlg and rPlg-Fc is observed"
same,"Michelis-Menten analysis of activation (KM and Vmax), 10 mM EACA",[2],the kinetics of rPlg and rPlg-Fc activation are similar (as indicated by the KM and Vmax)
same,activation measured by the hydrolysis of plasmin fluorogenic substrate H-Ala-Phe-Lys-AMC,[2],"In the presence of tPA or uPA, comparable hydrolytic activity for rPlg and rPlg-Fc is observed"
